We go through ten molecules from patent US20230357429A1 (JANUX THERAPEUTICS, published 2023).

Where no end group is shown, it is not given here.

One assay addresses T1, TBD-1 wt.
T1 construct: Fab; the heavy chain entry is VH-CH1; also called wild-type anti-TROP2 Fab (hRS7); TROP2 Fab
The assay is described as follows: competition ELISA: peptide titrated and pre-incubated with a constant concentration of TBD-1, then added to plate-bound biotinylated TROP2; blocked ligand TROP2 (2.m7).

In assay [1] the target is T2, TCE-1 (anti-CD3 scFv wt; anti-TROP2 Fab wt).
T2 construct: anti-CD3 scFv fused to the N-terminus of the anti-TROP2 Fab heavy chain; also called TCE-1 (wt)
As to the kind of experiment: competition ELISA: peptide titrated and pre-incubated with a constant concentration of TCE-1, binding of TCE-1 to plate-bound biotinylated CD3 detected. Background: An ELISA detects its analyte on a solid surface through an enzyme-linked reagent.

Assay [2] concerns the target T3, TCE-31 (anti-CD3 scFv W238A; anti-TROP2 wt).
T3 construct: scFv on the Fab heavy chain; also called TCE-31 (W238A)
The assay is described as follows: competition ELISA, TCE on captured CD3.

Assay [3] has as its target T4, TCE-33 (anti-CD3 scFv F240A; anti-TROP2 wt).
T4 construct: scFv on the Fab heavy chain; also called TCE-33 (F240A)
As to the kind of experiment: competition ELISA, TCE on captured CD3.

Assay [4] addresses T5, TCE-26 (anti-CD3 scFv W233A; anti-TROP2 HC wt).
T5 construct: scFv on the Fab heavy chain; also called TCE-26 (W233A)
As to the kind of experiment: competition ELISA, TCE on captured CD3.

Assay [5] addresses T6, TCE-14 (anti-CD3 scFv F104A; anti-TROP2 wt).
T6 construct: scFv on the Fab heavy chain; also called TCE-14 (F104A)
The assay is described as follows: competition ELISA, TCE on captured CD3.

Assay [6] has as its target T7, TCE-20 (anti-CD3 scFv S110A; anti-TROP2 wt).
T7 construct: scFv on the Fab heavy chain; also called TCE-20 (S110A)
The assay is described as follows: competition ELISA, TCE on captured CD3.

Assay [7] concerns the target T8, TCE-10 (anti-CD3 scFv R100A; anti-TROP2 wt).
T8 construct: scFv on the Fab heavy chain; also called TCE-10 (R100A)
The assay is described as follows: competition ELISA, TCE on captured CD3.

The target in assay [8] is T9, TCE-22 (anti-CD3 scFv W112A; anti-TROP2 wt).
T9 construct: scFv on the Fab heavy chain; also called TCE-22 (W112A)
As to the kind of experiment: competition ELISA, TCE on captured CD3.

Assay [9] has as its target T10, TCE-13 (anti-CD3 scFv N103A; anti-TROP2 wt).
T10 construct: scFv on the Fab heavy chain; also called TCE-13 (N103A)
The assay is described as follows: competition ELISA, TCE on captured CD3.

For a further assay, the target named is T11, Peptide-77 (cysteine pairing not given here; also: biotinylated, site not given here).
T11 construct: mask peptide for the CD3 scFv
T11 peptide: YLCGPDTDETLACY
As to the kind of experiment: ELISA, TCE on captured biotin-peptide.

For the next assay, the target named is T12, Peptide-70 (cysteine pairing not given here; also: biotinylated, site not given here).
T12 construct: mask peptide for the CD3 scFv
T12 peptide: YLCGPDGDETLACY
The assay is described as follows: ELISA, TCE on captured biotin-peptide.

The next assay deals with T13, Peptide-76 (cysteine pairing not given here; also: biotinylated, site not given here).
T13 construct: mask peptide for the CD3 scFv
T13 peptide: YLCGPDADETLACY
The assay is described as follows: ELISA, TCE on captured biotin-peptide.

For assay [10], the target named is T14, TCE-11 (anti-CD3 scFv H101A; anti-TROP2 wt).
T14 construct: scFv on the Fab heavy chain; also called TCE-11 (H101A)
The assay is described as follows: competition ELISA, TCE on captured CD3.

Turning to PDFCQLYNWPVCAG [Peptide-19], the binding result in the assay with TBD-1 wt was “binds”.

One may read the IC50 as the concentration that gives 50% inhibition. A higher IC50 goes with weaker potency. For DWCWYSPDNDGLCD (cysteine pairing not given here; also: biotinylated, site not given here, mask peptide for the CD3 scFv) [Peptide-68], the binding result in assay [1] was “binds”. Moreover, the IC50 in assay [2] amounted to 9.47 µM; in assay [3] it was 7.35 µM; in assay [4], 43 µM; in [5], 1.08 µM; in [6], 0.4 µM; in assay [7], 88.9 µM.

Consider SECLVDLQSDPCYW (cysteine pairing not given here; also: biotinylated, site not given here, mask peptide for the CD3 scFv) [Peptide-69], for which the binding result in assay [1] is recorded as “binds”. In addition, the IC50 stood at 6.57 µM in assay [2]; 0.81 µM in [3]; 56.8 µM in assay [8]; 2.02 µM in [4]; 11.8 µM in [5]; 4.24 µM in assay [6]. In assay [9], this molecule gave a 50% inhibitory concentration (IC50) of 50.5 µM.

B1: TCE-37 (anti-CD3 scFv F104A; anti-TROP2 F108A) (bispecific antibody)
light: DIQLTQSPSSLSASVGDRVSITCKASQDVSIAVAWYQQKPGKAPKLLIYSASYRYTGVPDRFSGSGSGTDFTLTISSLQPEDFAVYYCQQHYITPLTFGAGTKVEIKRTVAAPSVFIFPPSDEQLKSGTASVVCLLNNFYPREAKVQWKVDNALQSGNSQESVTEQDSKDSTYSLSSTLTLSKADYEKHKVYACEVTHQGLSSPVTKSFNRGEC
heavy: not shown
notes: scFv on the Fab heavy chain
By EC50 is commonly meant the midpoint of the concentration-response curve. On to B1, for which the values for the EC50 in the assay with Peptide-77, with Peptide-70 and in the assay with Peptide-76 were 0.00921 µM, 0.00034 µM and 0.00144 µM, respectively.

B2: TCE-7 (anti-CD3 scFv wt; anti-TROP2 F108A) (bispecific antibody)
light: DIQLTQSPSSLSASVGDRVSITCKASQDVSIAVAWYQQKPGKAPKLLIYSASYRYTGVPDRFSGSGSGTDFTLTISSLQPEDFAVYYCQQHYITPLTFGAGTKVEIKRTVAAPSVFIFPPSDEQLKSGTASVVCLLNNFYPREAKVQWKVDNALQSGNSQESVTEQDSKDSTYSLSSTLTLSKADYEKHKVYACEVTHQGLSSPVTKSFNRGEC
heavy: not shown
notes: scFv on the Fab heavy chain
In the case of B2, the EC50 with Peptide-77 was determined as 0.0632 µM; in the assay with Peptide-70, 0.0004 µM; in the assay with Peptide-76, 0.00456 µM.

On to QGCGTIADPEPHCW (cysteine pairing not given here; also: biotinylated, site not given here, mask peptide for the CD3 scFv) [Peptide-65], for which the “IC50 (read off the curve)” value in assay [1] was about 2 µM. Moreover, the IC50 in assay [2] is 17.7 µM; in assay [3] it was 0.62 µM; in assay [4], 2.64 µM; in [5], 6.46 µM; in assay [10], 85 µM; in [6], 6.54 µM.

For the molecule VDFCYQYGWPICSR [Peptide-23], in the assay with TBD-1 wt, the binding result was “binds”.

In the case of IDFCSLYQWPVCGT [Peptide-21], the binding result with TBD-1 wt is given as “binds”.

For the molecule VDCGPDGDESILCY (cysteine pairing not given here; also: biotinylated, site not given here, mask peptide for the CD3 scFv) [Peptide-71], in assay [1], the binding result is “binds”. Besides, the IC50 was determined as 51 µM in assay [2]; 4.83 µM in assay [3]; 13.8 µM in [8]; 75.4 µM in assay [4]; 3.72 µM in [10]; 11.8 µM in assay [6]. Moreover, the IC50 in assay [9] worked out at 5.08 µM; in assay [7], 1.35 µM.

On to VDFCTIYKWPVCEG [Peptide-22], for which the binding result with TBD-1 wt is on record as “binds”.
